Experimental findings from patent US20210207126A1 are described below.

For assay [1], the target named is CD137 antigen used to stain yeast (human) (UniProt Q07011). As to the kind of experiment: flow cytometry of yeast displaying the scFv, CD137 binding against scFv display; file 01-5112.2-B5.fcs; kind of statistic and antigen concentration not given; the boxed gate is set on scFv display. For orientation: In flow cytometry, cells or beads pass a laser one at a time.

Assay [2] has the same target. As to the kind of experiment: flow cytometry of yeast displaying the scFv, quadrant plot; the other quadrants read 0.39% (upper left), 34.3% (lower left), 3.83% (lower right).
The target is the same in assay [3]. As to the kind of experiment: flow cytometry of yeast displaying the scFv, CD137 binding against scFv display; file 01-display-C2.fcs; antigen concentration not given.
The target is the same in assay [4]. Description: flow cytometry of yeast displaying the scFv clone after TEV protease treatment, CD137 binding against scFv display; file 01-2317-B8.fcs; antigen concentration not given.
The target is the same in assay [5]. As to the kind of experiment: flow cytometry of yeast displaying the clone after TEV protease treatment, CD137 binding against the axis printed as scFv display; file 01-2328-B11.fcs; antigen concentration not given.

CD137 antigen used to stain yeast (human), sequence (Q07011 24-186 limits assumed): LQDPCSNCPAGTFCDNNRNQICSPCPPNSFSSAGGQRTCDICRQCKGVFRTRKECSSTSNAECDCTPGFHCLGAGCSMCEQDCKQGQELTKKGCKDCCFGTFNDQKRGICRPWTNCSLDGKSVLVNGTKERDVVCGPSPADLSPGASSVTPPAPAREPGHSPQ

B1: scFv of TY21242 displayed on yeast (scFv, part only; not given: scFv linker, Aga2, tag, V domains shown, not shown: another chain or arm of the molecule; large carriers; small tags and cut ends)
VL: DIQLTQSPSSLSASVGDRVTITCRASQSIGSYLAWYQQKPGKAPKLLIYDASNLETGVPSRFSGSGSGTDFTLTISSLQPEDFATYYCQQGYYLWTFGQGTKVEIK
VH: EVQLVESGGGLVQPGGSLRLSCAASGFSLSTGGVGVGWIRQAPGKGLEWLALIDWADDKYYSPSLKSRLTISRDNSKNTLYLQLNSLRAEDTAVYYCARGGSDTVIGDWFAYWGQGTLVTVSS
Consider B1, for which the Y (signal on the CD137 binding axis, FL2-A :: PE-A) in assay [1] is 19200; in assay [3], 27800. This molecule also gave a percent of cells in the upper right quadrant (scFv display positive and CD137 binding positive) in assay [2] of 61.4%.

B2: CD137 activatable antibody clone B13428 (scFv on yeast, masking peptide cleaved by TEV protease) (scFv, part only; not given: cleavage stub, scFv linker, Aga2, V domains shown, not shown: another chain or arm of the molecule; large carriers; small tags and cut ends)
VL: B1 VL
VH: B1 VH
Molecule B2 showed a Y (signal on the CD137 binding axis, FL2-A :: PE-A) in assay [4] of 10100.

B3: CD137 activatable antibody clone B13439 (scFv on yeast, masking peptide cleaved by TEV protease) (scFv, part only; not given: cleavage stub, scFv linker, Aga2, tag, V domains shown, not shown: another chain or arm of the molecule; large carriers; small tags and cut ends)
VL: B1 VL
VH: B1 VH
Regarding B3, in assay [5], the Y (signal on the CD137 binding axis, FL2-A :: PE-A) turned out to be 7270.
